{"source": "patent US7074904", "key": {"[1]": {"target": "T cell receptor of the murine T cell hybridoma DO11.10 (I-A^d restricted, OVA peptide 323-339 specific) (mouse)", "test": "cell-based or functional assay"}, "[2]": {"target": "T cell receptor of the murine T cell hybridoma DO11.10 (I-A^d restricted, OVA peptide 323-339 specific) (mouse)", "test": "cell-based or functional assay", "remark": "listed apart in the source"}}, "note": "Where two headings read alike, the source gives them in different places."}
{"binder": "soluble single-chain I-A^d-OVA from insect cells (SSC1 gene in pMBSC1.2, SF9 cells) (peptide-MHC) TMALQIPSLLLSAAVVVLMVLSSPRTLSISQAVHAAHAEINEAGRASGGGGSGGGGNSERHFVVQFKGECYYTNGTQRIRLVTRYIYNREEYVRYDSDVGEYRAVTELGRPDAEYWNSQPEILERTRAEVDTACRHNYEGPETSTSLRRLEQPNVAISLSRTEALNHHNTLVCSVTDFYPAKIKVRWFRNGQEETVGVSSTQLIRNGDWTFQVLVMLEMTPHQGEVYTCHVEHPSLKSPITVEWTSGGGGSGGGGSGGGGSGGGGSSSEDDIEADHVGFYGTTVYQSPGDIGQYTHEFDGDELFYVDLDKKKTVWRLPEFGQLILFEPQGGLQNIAAEKHNLGILTKRSNFTPATNEAPQATVFPKSPVLLGQPNTLICFVDNIFPPVINITWLRNSKSVTDGVYETSFLVNRDHSFHKLSYLTFIPSDDDIYDCKVEHWGLEEPVLKHWSRASHHHHHH", "values": [{"measurement": "IL-2 concentration in DO11 super, 39 ng/well immobilized scIA^d-OVA (extended dilution)", "setting": "[1]", "value": 0, "unit": "U/ml"}, {"measurement": "IL-2 concentration in DO11 super, 78 ng/well immobilized sc IA^d-OVA", "setting": "[1]", "value": 45, "unit": "U/ml"}, {"measurement": "IL-2 concentration in DO11 super, 78 ng/well immobilized scIA^d-OVA (extended dilution)", "setting": "[1]", "value": 17, "unit": "U/ml"}, {"measurement": "IL-2 concentration in DO11 super, 156 ng/well immobilized sc IA^d-OVA", "setting": "[1]", "value": 100, "unit": "U/ml"}, {"measurement": "IL-2 concentration in DO11 super, 156 ng/well immobilized scIA^d-OVA (extended dilution)", "setting": "[1]", "value": 24, "unit": "U/ml"}, {"measurement": "IL-2 concentration in DO11 super, 312 ng/well immobilized sc IA^d-OVA", "setting": "[1]", "value": 109, "unit": "U/ml"}, {"measurement": "IL-2 concentration in DO11 super, 312 ng/well immobilized scIA^d-OVA (extended dilution)", "setting": "[1]", "value": 35, "unit": "U/ml"}, {"measurement": "IL-2 concentration in DO11 super, 625 ng/well immobilized sc IA^d-OVA", "setting": "[1]", "value": 116, "unit": "U/ml"}, {"measurement": "IL-2 concentration in DO11 super, 625 ng/well immobilized scIA^d-OVA (extended dilution)", "setting": "[1]", "value": 38, "unit": "U/ml"}, {"measurement": "IL-2 concentration in DO11 super, 1250 ng/well immobilized sc IA^d-OVA", "setting": "[1]", "value": 126, "unit": "U/ml"}, {"measurement": "IL-2 concentration in DO11 super, 2500 ng/well immobilized sc IA^d-OVA", "setting": "[1]", "value": 143, "unit": "U/ml"}, {"measurement": "IL-4 concentration in DO11 super, 78 ng/well immobilized sc IA^d-OVA", "setting": "[1]", "value": 7, "unit": "U/ml"}, {"measurement": "IL-4 concentration in DO11 super, 156 ng/well immobilized sc IA^d-OVA", "setting": "[1]", "value": 10, "unit": "U/ml"}, {"measurement": "IL-4 concentration in DO11 super, 312 ng/well immobilized sc IA^d-OVA", "setting": "[1]", "value": 16, "unit": "U/ml"}, {"measurement": "IL-4 concentration in DO11 super, 625 ng/well immobilized sc IA^d-OVA", "setting": "[1]", "value": 15, "unit": "U/ml"}, {"measurement": "IL-4 concentration in DO11 super, 1250 ng/well immobilized sc IA^d-OVA", "setting": "[1]", "value": 20, "unit": "U/ml"}, {"measurement": "IL-4 concentration in DO11 super, 2500 ng/well immobilized sc IA^d-OVA", "setting": "[1]", "value": 23, "unit": "U/ml"}, {"measurement": "IL-r [IL-4] concentration in DO11 super, 39 ng/well immobilized scIA^d-OVA (extended dilution)", "setting": "[1]", "value": 0, "unit": "U/ml"}, {"measurement": "IL-r [IL-4] concentration in DO11 super, 78 ng/well immobilized scIA^d-OVA (extended dilution)", "setting": "[1]", "value": 0.8, "unit": "U/ml"}, {"measurement": "IL-r [IL-4] concentration in DO11 super, 156 ng/well immobilized scIA^d-OVA (extended dilution)", "setting": "[1]", "value": 0.9, "unit": "U/ml"}, {"measurement": "IL-r [IL-4] concentration in DO11 super, 312 ng/well immobilized scIA^d-OVA (extended dilution)", "setting": "[1]", "value": 1.5, "unit": "U/ml"}, {"measurement": "IL-r [IL-4] concentration in DO11 super, 625 ng/well immobilized scIA^d-OVA (extended dilution)", "setting": "[1]", "value": 2, "unit": "U/ml"}]}
{"binder": "I-A^d on NSO parental cells (untransfected negative control, H-2^d background) (protein, mouse) MHC II alpha: EDDIEADHVGFYGTTVYQSPGDIGQYTHEFDGDELFYVDLDKKKTVWRLPEFGQLILFEPQGGLQNIAAEKHNLGILTKRSNFTPATNEAPQATVFPKSPVLLGQPNTLICFVDNIFPPVINITWLRNSKSVTDGVYETSFLVNRDHSFHKLSYLTFIPSDDDIYDCKVEHWGLEEPVLKHWEPEIPAPMSELTETVVCALGLSVGLVGIVVGTIFIIQGLRSGGTSRHPGPL MHC II beta: GNSERHFVVQFKGECYYTNGTQRIRLVTRYIYNREEYVRYDSDVGEYRAVTELGRPDAEYWNSQPEILERTRAEVDTACRHNYEGPETSTSLRRLEQPNVAISLSRTEALNHHNTLVCSVTDFYPAKIKVRWFRNGQEETVGVSSTQLIRNGDWTFQVLVMLEMTPHQGEVYTCHVEHPSLKSPITVEWRAQSESARSKMLSGIGGCVLGVIFLGLGLFIRHRSQKGPRGPPPAGLLQ", "values": [{"measurement": "IL-2 ELISA result (Absorbance), DO11.10 with NSO (parental cell line) as antigen presenting cell", "setting": "[1]", "value": 0.047, "unit": "Absorbance"}, {"measurement": "IL-2 ELISA result (Absorbance), DO11.10 with NSO (parental cell line) as antigen presenting cell", "setting": "[2]", "value": 0.078, "unit": "Absorbance"}]}
{"binder": "membrane-bound single-chain I-A^d-OVA (SCT1 construct) on transfected NSO cells (peptide-MHC) TMALQIPSLLLSAAVVVLMVLSSPRTLSISQAVHAAHAEINEAGRASGGGGSGGGGNSERHFVVQFKGECYYTNGTQRIRLVTRYIYNREEYVRYDSDVGEYRAVTELGRPDAEYWNSQPEILERTRAEVDTACRHNYEGPETSTSLRRLEQPNVAISLSRTEALNHHNTLVCSVTDFYPAKIKVRWFRNGQEETVGVSSTQLIRNGDWTFQVLVMLEMTPHQGEVYTCHVEHPSLKSPITVEWTSGGGGSGGGGSGGGGSGGGGSSSEDDIEADHVGFYGTTVYQSPGDIGQYTHEFDGDELFYVDLDKKKTVWRLPEFGQLILFEPQGGLQNIAAEKHNLGILTKRSNFTPATNEAPQATVFPKSPVLLGQPNTLICFVDNIFPPVINITWLRNSKSVTDGVYETSFLVNRDHSFHKLSYLTFIPSDDDIYDCKVEHWGLEEPVLKHWEPEIPAPMSELTETVVCALGLSVGLVGIVVGTIFIIQGLRSGGTSRHPGPL", "values": [{"measurement": "IL-2 ELISA result (Absorbance), DO11.10 with T2 (SCT1 transfectant) as antigen presenting cell", "setting": "[1]", "value": 0.758, "unit": "Absorbance"}, {"measurement": "IL-2 ELISA result (Absorbance), DO11.10 with T6 (SCT1 transfectant) as antigen presenting cell", "setting": "[1]", "value": 0.307, "unit": "Absorbance"}, {"measurement": "IL-2 ELISA result (Absorbance), DO11.10 with T12 (SCT1 transfectant) as antigen presenting cell", "setting": "[2]", "value": 1.03, "unit": "Absorbance"}]}
